In US20240002531A1 (ONO PHARMACEUTICAL, published 2024):

How the values were obtained:
Test in all cases: SPR Biacore, mAb on chip, peptide analyte, 1:1 fit
HER2 peptide p610-618 = target: T1, HER2 peptide p610-618 (human)
T1 peptide: YMPIWKFPD

HER2 peptide p610-620 = target: T2, HER2 peptide p610-620 (human)
T2 peptide: YMPIWKFPDEE

HER2 peptide p612-619 = target: T3, HER2 peptide p612-619 (human)
T3 peptide: PIWKFPDE

HER2 peptide p611-621 = target: T4, HER2 peptide p611-621 (human)
T4 peptide: MPIWKFPDEEG

HER2 peptide p611-620 = target: T5, HER2 peptide p611-620 (human)
T5 peptide: MPIWKFPDEE

HER2 peptide p613-620 = target: T6, HER2 peptide p613-620 (human)
T6 peptide: IWKFPDEE

HER2 peptide p613-621 = target: T7, HER2 peptide p613-621 (human)
T7 peptide: IWKFPDEEG

HER2 peptide p613-618 = target: T8, HER2 peptide p613-618 (human)
T8 peptide: IWKFPD

HER2 peptide p612-620 = target: T9, HER2 peptide p612-620 (human)
T9 peptide: PIWKFPDEE

HER2 peptide p611-618 = target: T10, HER2 peptide p611-618 (human)
T10 peptide: MPIWKFPD

HER2 peptide p611-619 = target: T11, HER2 peptide p611-619 (human)
T11 peptide: MPIWKFPDE

HER2 peptide p610-619 = target: T12, HER2 peptide p610-619 (human)
T12 peptide: YMPIWKFPDE

HER2 peptide p609-621 = target: T13, HER2 peptide p609-621 (human)
T13 peptide: SYMPIWKFPDEEG

HER2 peptide p609-618 = target: T14, HER2 peptide p609-618 (human)
T14 peptide: SYMPIWKFPD

HER2 peptide p609-620 = target: T15, HER2 peptide p609-620 (human)
T15 peptide: SYMPIWKFPDEE

HER2 peptide p611-622 = target: T16, HER2 peptide p611-622 (human)
T16 peptide: MPIWKFPDEEGA

HER2 peptide p612-622 = target: T17, HER2 peptide p612-622 (human)
T17 peptide: PIWKFPDEEGA

HER2 peptide p609-622 = target: T18, HER2 peptide p609-622 (human)
T18 peptide: SYMPIWKFPDEEGA

HER2 peptide p614-620 = target: T19, HER2 peptide p614-620 (human)
T19 peptide: WKFPDEE

HER2 peptide p610-622 = target: T20, HER2 peptide p610-622 (human)
T20 peptide: YMPIWKFPDEEGA

HER2 peptide p612-621 = target: T21, HER2 peptide p612-621 (human)
T21 peptide: PIWKFPDEEG

HER2 peptide p610-621 = target: T22, HER2 peptide p610-621 (human)
T22 peptide: YMPIWKFPDEEG

HER2 peptide p609-619 = target: T23, HER2 peptide p609-619 (human)
T23 peptide: SYMPIWKFPDE

[1] = target: T24, HER2 peptide p603-622 (amino acids 603 to 622 of human HER2) (human)
T24 construct: Synthetic peptide; also called wild-type HER2 peptide
T24 peptide: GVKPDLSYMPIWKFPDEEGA

[2] = target: T25, V604A peptide (HER2 603-622 with V604A) (human);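 also: where kon or koff could not be resolved by kinetic fitting, Kd comes instead from steady-state equilibrium analysis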
T25 peptide: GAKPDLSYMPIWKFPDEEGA

B1: H2Mab-214 antibody (antibody, V domains shown)
VH: QVTLKESGPGILQPSQTLSLTCSFSGFSLSTSGMGVSWIRQPSGKGLEWLAHIFWDDDKRYNPSLKSRLTISKDTSRNKVFLKITSVDTADTATYYCARRVVATDWYFDVWGAGTTVTVSS
VL: DIVLTQSPASLAVSLGQRATISCRASESVEYYGTTLMQWYQQKPGQPPKLLIYAASKVESGVPARFSGSGSGTDFSLNIHPVEEDDVAMYFCQQSRKVPLTFGAGTKLELKR
notes: Mouse monoclonal from a hybridoma (immunogen HER2ec made in LN229 cells); also called antibody of the present invention
Kd (HER2 peptide p610-618): 14.5 nM | koff (HER2 peptide p610-618): 0.0121 s⁻¹ | kon (HER2 peptide p610-618): 837000 M⁻¹ s⁻¹ | Kd (HER2 peptide p610-620): 8.68 nM | koff (HER2 peptide p610-620): 0.00502 s⁻¹ | kon (HER2 peptide p610-620): 579000 M⁻¹ s⁻¹ | Kd (HER2 peptide p612-619): 22.2 nM | koff (HER2 peptide p612-619): 0.0235 s⁻¹ | kon (HER2 peptide p612-619): 1.06e+06 M⁻¹ s⁻¹ | Kd (HER2 peptide p611-621): 16.8 nM | koff (HER2 peptide p611-621): 0.00961 s⁻¹ | kon (HER2 peptide p611-621): 571000 M⁻¹ s⁻¹ | Kd (HER2 peptide p611-620): 17.6 nM | koff (HER2 peptide p611-620): 0.00836 s⁻¹ | kon (HER2 peptide p611-620): 475000 M⁻¹ s⁻¹ | Kd (HER2 peptide p613-620): 2310 nM | koff (HER2 peptide p613-620): 0.01 s⁻¹ | kon (HER2 peptide p613-620): 4340 M⁻¹ s⁻¹ | Kd (HER2 peptide p613-621): 13000 nM | koff (HER2 peptide p613-621): 0.00955 s⁻¹ | kon (HER2 peptide p613-621): 736 M⁻¹ s⁻¹ | Kd (HER2 peptide p613-618): 915 nM | koff (HER2 peptide p613-618): 0.013 s⁻¹ | kon (HER2 peptide p613-618): 14200 M⁻¹ s⁻¹ | Kd (HER2 peptide p612-620): 23.7 nM | koff (HER2 peptide p612-620): 0.0179 s⁻¹ | kon (HER2 peptide p612-620): 754000 M⁻¹ s⁻¹ | Kd (HER2 peptide p611-618): 21 nM | koff (HER2 peptide p611-618): 0.0141 s⁻¹ | kon (HER2 peptide p611-618): 669000 M⁻¹ s⁻¹ | Kd (HER2 peptide p611-619): 11.1 nM | koff (HER2 peptide p611-619): 0.0083 s⁻¹ | kon (HER2 peptide p611-619): 747000 M⁻¹ s⁻¹ | Kd (HER2 peptide p610-619): 5.74 nM | koff (HER2 peptide p610-619): 0.0051 s⁻¹ | kon (HER2 peptide p610-619): 889000 M⁻¹ s⁻¹ | Kd (HER2 peptide p609-621): 8.06 nM | koff (HER2 peptide p609-621): 0.00465 s⁻¹ | kon (HER2 peptide p609-621): 577000 M⁻¹ s⁻¹ | Kd (HER2 peptide p609-618): 14.3 nM | koff (HER2 peptide p609-618): 0.0107 s⁻¹ | kon (HER2 peptide p609-618): 747000 M⁻¹ s⁻¹ | Kd (HER2 peptide p609-620): 6.89 nM | koff (HER2 peptide p609-620): 0.00445 s⁻¹ | kon (HER2 peptide p609-620): 645000 M⁻¹ s⁻¹ | Kd (HER2 peptide p611-622): 23.9 nM | koff (HER2 peptide p611-622): 0.0108 s⁻¹ | kon (HER2 peptide p611-622): 451000 M⁻¹ s⁻¹ | Kd (HER2 peptide p612-622): 39.7 nM | koff (HER2 peptide p612-622): 0.0244 s⁻¹ | kon (HER2 peptide p612-622): 615000 M⁻¹ s⁻¹ | Kd (HER2 peptide p609-622): 9.37 nM | koff (HER2 peptide p609-622): 0.00526 s⁻¹ | kon (HER2 peptide p609-622): 561000 M⁻¹ s⁻¹ | Kd (HER2 peptide p614-620): 41200 nM | koff (HER2 peptide p614-620): 0.0152 s⁻¹ | kon (HER2 peptide p614-620): 370 M⁻¹ s⁻¹ | Kd (HER2 peptide p610-622): 38.8 nM | koff (HER2 peptide p610-622): 0.00598 s⁻¹ | kon (HER2 peptide p610-622): 154000 M⁻¹ s⁻¹ | Kd (HER2 peptide p612-621): 27.9 nM | koff (HER2 peptide p612-621): 0.024 s⁻¹ | kon (HER2 peptide p612-621): 859000 M⁻¹ s⁻¹ | Kd (HER2 peptide p610-621): 8.57 nM | koff (HER2 peptide p610-621): 0.00519 s⁻¹ | kon (HER2 peptide p610-621): 679000 M⁻¹ s⁻¹ | Kd (HER2 peptide p609-619): 5.76 nM | koff (HER2 peptide p609-619): 0.00449 s⁻¹ | kon (HER2 peptide p609-619): 779000 M⁻¹ s⁻¹ | Kd [1]: 22.8 nM | koff [1]: 0.00534 s⁻¹

B2: H2Mab-250 antibody (antibody, V domains shown)
VH: EVQLVESGGGLVQPGGSLKLSCAASGFTFSNYGMSWVRQTPDRRLELVATINNNGGGTYYPDSVKGRFTISRDNAKNTLYLQMSSLKSEDTAMYYCTSPGLLWDAWGAGTTVTVSS
VL: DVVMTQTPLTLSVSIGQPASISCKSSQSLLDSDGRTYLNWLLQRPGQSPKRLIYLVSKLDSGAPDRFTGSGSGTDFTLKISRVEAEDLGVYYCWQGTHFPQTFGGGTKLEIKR
notes: as for B1
Kd [2]: 6.54 nM | koff [2]: 0.000399 s⁻¹ | kon [2]: 61000 M⁻¹ s⁻¹
